The target of the series is Sam68-6H (UniProt Q07666 1-443). In words: EMSA. The settings on record: protein: recombinant; tags: 6xHis (pET30c+); chain copies: 2; label: 5' biotin; two UAAA motifs predicted unpaired.
Chain of Sam68-6H (Q07666 whole entry): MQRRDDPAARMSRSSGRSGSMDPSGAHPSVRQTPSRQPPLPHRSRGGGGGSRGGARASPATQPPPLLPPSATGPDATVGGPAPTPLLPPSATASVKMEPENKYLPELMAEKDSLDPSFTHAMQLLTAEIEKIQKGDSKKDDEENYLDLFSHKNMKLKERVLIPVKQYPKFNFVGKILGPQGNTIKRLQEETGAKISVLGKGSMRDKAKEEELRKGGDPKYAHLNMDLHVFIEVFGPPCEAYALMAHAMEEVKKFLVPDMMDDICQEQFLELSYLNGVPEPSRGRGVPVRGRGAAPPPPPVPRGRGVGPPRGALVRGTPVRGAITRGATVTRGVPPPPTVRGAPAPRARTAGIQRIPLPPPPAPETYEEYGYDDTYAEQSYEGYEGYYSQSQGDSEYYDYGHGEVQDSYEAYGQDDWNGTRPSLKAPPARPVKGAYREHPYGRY

B1: WT domain 4 probe (ssRNA)
RNA: AAGGGGACCGGGGCUUCUAUAAAAGCGCCCGGUUUAAAAAGCUUCUAUGUCUGAAUAGGUGACCG
With B1, the “apparent K (half saturation)” value is approximately 3.16 µM.

The record behind these values is publication PMC4689063.
